Columns and labels:
[1] = target: T1, alpha-synuclein (monomer) (UniProt P37840 P37840:1-140); test: MST; 1x PBS, 0.05% Tween-20, 25 C; 50 nM aptamer
[2] = target: T1, alpha-synuclein (monomer); test: footprint; DNase I; positive control; apparent Kd estimated from three bands but value not given in text; DPBS, 37 C
[3] = target: T1, alpha-synuclein (monomer); test: footprint; DNase I; apparent Kd estimated from three bands but value not given in text; DPBS, 37 C

Binder | Kd [1] [nM] | further results
a-syn-3 (GdJUhe) (ssDNA) DNA: ATAGTCCCATCATTCATTGTATGAGATGGGGTGGTGACGTCAGCATGGAGATATTAGCAAGTGTCA | 94.2 | –
a-syn-2 (1LBiGJFJC) (ssDNA) DNA: ATAGTCCCATCATTCATTGTATGGTACGGCGCGGTGGCGGGTGCGGGGAGATATTAGCAAGTGTCA | 286 | –
M5-15 (ssDNA) DNA: ATAGTCCCATCATTCATTGTATGGTACGGCGCGGTGGCGGGTGCGTGGAGATATTAGCAAGTGTCA | – | binding result [2]: binds
a-syn-1 (1LBwAAjJ) (ssDNA) DNA: ATAGTCCCATCATTCATTGTAAGGAAACGCTACGGGGTGGGTACGGCAAGATATTAGCAAGTGTCA | – | binding result [3]: binds

From patent US20200325476 (published 2020)
